According to patent US20200325480A1 (NOGRA PHARMA, published 2020):

Target: T1, TGF-β1 R1 (mouse, UniProt Q64729 30-503)
T1 construct: Endogenous protein in total cell extracts; It is seen only as part of the 102 Kda band on the anti-Smad7 Western blot; also called TGF-β1 receptor R1
T1 sequence (looked up): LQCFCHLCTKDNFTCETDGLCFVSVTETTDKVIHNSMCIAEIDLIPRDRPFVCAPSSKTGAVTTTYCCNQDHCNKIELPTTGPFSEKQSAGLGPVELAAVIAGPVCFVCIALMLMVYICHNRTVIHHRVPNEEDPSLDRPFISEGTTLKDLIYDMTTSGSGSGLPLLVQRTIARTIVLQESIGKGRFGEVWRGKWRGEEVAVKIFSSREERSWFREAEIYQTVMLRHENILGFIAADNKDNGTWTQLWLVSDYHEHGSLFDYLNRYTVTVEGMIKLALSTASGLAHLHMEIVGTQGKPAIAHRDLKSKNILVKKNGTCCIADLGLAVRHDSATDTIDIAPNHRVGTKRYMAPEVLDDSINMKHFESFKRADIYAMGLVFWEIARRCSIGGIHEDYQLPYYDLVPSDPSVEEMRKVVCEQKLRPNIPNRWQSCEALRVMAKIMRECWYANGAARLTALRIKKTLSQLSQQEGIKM
Assay: Western blot of LPMC total protein extracts with anti-Smad7 antibody (FIG. 3)

binding result: binds
B1: Smad7 (other, mouse, UniProt O35253 1-426, looked up)
chain: MFRTKRSALVRRLWRSRAPGGEDEEEGVGGGGGGGELRGEGATDGRAYGAGGGGAGRAGCCLGKAVRGAKGHHHPHPPTSGAGAAGGAEADLKALTHSVLKKLKERQLELLLQAVESRGGTRTACLLLPGRLDCRLGPGAPASAQPAQPPSSYSLPLLLCKVFRWPDLRHSSEVKRLCCCESYGKINPELVCCNPHHLSRLCELESPPPPYSRYPMDFLKPTAGCPDAVPSSAETGGTNYLAPGGLSDSQLLLEPGDRSHWCVVAYWEEKTRVGRLYCVQEPSLDIFYDLPQGNGFCLGQLNSDNKSQLVQKVRSKIGCGIQLTREVDGVWVYNRSSYPIFIKSATLDNPDSRTLLVHKVFPGFSIKAFDYEKAYSLQRPNDHEFMQQPWTGFTVQISFVKGWGQCYTRQFISSCPCWLEVIFNSR
notes: Endogenous protein in total cell extracts, detected by Western blot with a rabbit anti-human Smad7 antibody; also called free Smad7 (47 Kda band)
